Here are results for 16 molecules from patent publication US20250197490A1 (HBM ALPHA THERAPEUTICS, published 2025).

Positions count from the first letter of the chain named. Where two headings read alike, the source gives them in different places.

Assay [1] concerns the target T1, biotinylated CRH (human and mouse, UniProt P01143 145-185 (rat entry), not fully specified; biotin; which end is not stated for the result (NT-biotin and CT-biotin forms were used)).
T1 construct: also called biotin-CRH; CRH (NT biotin)
T1 peptide: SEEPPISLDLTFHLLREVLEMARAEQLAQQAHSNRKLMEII
The assay can be described thus: ELISA, CRH (NT biotin). As for the experimental part:
(§1) Streptavidin (Thermo, Cat: 21125) was diluted in PBS to a concentration of 2 μg/ml. 100 μl of diluted streptavidin was added per well to ELISA microplates, and the plates were incubated overnight at 4° C. […] Subsequently, plates were washed and incubated with HRP-conjugated goat anti-human IgG (H+L) antibody (Jackson, Cat: 109-035-088) at 37° C. for 1 hour. 100 μL of 3,3′,5,5′-tetramethylbenzidine (TMB) substrate (Biopanda, Cat: TMB-S-003) was added, and the plates were incubated at room temperature for 15 minutes. 100 μL of ELISA stopping solution (Solarbio, Cat #: C1058) was added to terminate the reaction, and the optical density at 450 nm (OD450 nm) was determined by an ELISA plate reader (Molecular Devices, Spectra max 384 plus).
These potential PTMs were mutated individually either in HCDR2 alone, in LCDR1 alone, or in various combinations of mutations, as detailed in Table 3. […] Most ΔPTM variants retained functional activities.

Assay [2] has as its target T1, biotinylated CRH. The assay can be described thus: ELISA, CRH (NT biotin). (ELISA stands for enzyme-linked immunosorbent assay.)
Assay [3] concerns the target T2, corticotropin-releasing hormone (CRH) peptide (human and mouse, UniProt P01143 145-185 (rat entry), not fully specified).
T2 peptide: T1 peptide
The experiment in a line: cell-based or functional assay.

Assay [4] has as its target T1, biotinylated CRH. The assay can be described thus: ELISA, CRH (NT biotin). The protocol:
as §1

Assay [5] addresses T1, biotinylated CRH. The assay can be described thus: ELISA, CRH (CT biotin). As for the experimental part: as §1
The target in assay [6] is T3, human UCN1 peptide, biotinylated (human, UniProt P55089 83-122, biotin at N- or C-terminus).
T3 construct: also called hUCN1 (NT Biotin); hUCN1 (CT Biotin)
T3 peptide (looked up): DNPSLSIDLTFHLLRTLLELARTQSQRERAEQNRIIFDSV
The experiment in a line: ELISA, hUCN1 (NT biotin). As for the experimental part:
as §1

Assay [7] deals with T4, N-Terminal CRH peptide (N-terminal region plus central region, CT biotin) (human and mouse, C-terminal K-Biotin).
T4 construct: also called N-Ter-CRH
T4 peptide: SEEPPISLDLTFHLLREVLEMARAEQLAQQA
The experiment in a line: ELISA, N-Ter-CRH (CT-biotin) on streptavidin. As for the experimental part: as §1

Assay [8] deals with T5, human UCN2 peptide, biotinylated (human, UniProt Q96RP3 72-109, limits assumed, biotin at N- or C-terminus).
T5 construct: also called hUCN2 (NT Biotin); hUCN2 (CT Biotin)
T5 peptide (looked up): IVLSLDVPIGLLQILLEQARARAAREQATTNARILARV
The experiment in a line: ELISA, hUCN2 (NT biotin) and (CT biotin). As for the experimental part: (§2) Streptavidin (Thermo, Cat: 21125) was diluted in PBS with a concentration of 2 μg/mL. 100 μL of diluted streptavidin was added per well to ELISA microplates, and the plates were incubated overnight at 4° C. Plates were blocked with ELISA blocking solution (containing 2% w/v BSA, 0.05% (v/v) Tween-20, pH 7.4 PBS buffer) at 37° C. for 1 hour, and then incubated with either 1 μg/mL hUCN1 (NT Biotin), hUCN1 (CT Biotin), hUCN2 (NT Biotin), hUCN2 (CT Biotin), hUCN3 (NT Biotin), or hUCN3 (CT Biotin) for 1 hour at 37° C. […] Plates were subsequently washed and incubated with HRP-conjugated goat anti-human IgG (H+L) antibody (Jackson, Cat: 109-035-088) at 37° C. for 1 hour. 100 μl of TMB Substrate (Biopanda, Cat: TMB-S-003) was added, and the plates were incubated at room temperature for 15 minutes. 100 μL of ELISA stopping solution (Solarbio, Cat #: C1058) was then added to terminate the reaction, and the OD450 nm was determined by an ELISA plate reader (Molecular Devices, Spectra max 384 plus).

In assay [9] the target is T6, human UCN3 peptide, biotinylated (human, UniProt Q969E3 120-157, biotin at N- or C-terminus).
T6 construct: also called hUCN3 (NT Biotin); hUCN3 (CT Biotin)
T6 peptide (looked up): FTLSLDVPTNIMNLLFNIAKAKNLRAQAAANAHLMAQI
The assay can be described thus: ELISA, hUCN3 (NT biotin) and (CT biotin). As for the experimental part:
as §2

Assay [10] has as its target T7, CRH (Central Region, NT Biotin) (N-terminal Biotin-K; C-terminal NH2).
T7 construct: also called Central CRH
T7 peptide: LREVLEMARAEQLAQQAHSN
The experiment in a line: ELISA, CRH central region peptide (NT biotin). The protocol: as §1

Assay [11] concerns the target T8, CRH (Central Region, CT Biotin) (C-terminal K-Biotin).
T8 construct: also called Central CRH
T8 peptide: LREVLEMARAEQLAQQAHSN
The experiment in a line: ELISA, CRH central region peptide (CT biotin). The protocol:
as §1

For assay [12], the target named is T9, CRH (C-Terminal Region, NT Biotin) (N-terminal Biotin-K; C-terminal NH2).
T9 construct: central region plus C-terminal region of CRH; also called C-Terminal CRH; C-Ter-CRH
T9 peptide: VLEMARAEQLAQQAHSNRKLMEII
The experiment in a line: ELISA, CRH C-terminal region peptide (NT biotin). As for the experimental part:
as §1

Assay [13] deals with T3, human UCN1 peptide, biotinylated. The experiment in a line: ELISA, hUCN1 (NT biotin) and (CT biotin), mAb at 100 and 10 nM. The protocol: as §2

B1: PR006149 (antibody, human IgG1, kappa, V domains shown)
VH: EVQLVESGGVLVQPGGSLRLSCAASGFTFSSYWMTWVRQAPGKGLEWVANIKQDASEKYYVDSVKGRFTISRDNAKNSLFLQMNSLRAEDTAVYYCARTLIFDYWGQGTLVTVSS
VL: DIVMTQSPLSLPVTPGEPASISCRSSQSLLHSTGYSSLEWYLQKPGQSPQLLIYLGSNRASGVPDRFSGSGSGTDFTLKISRVEAEDVGIYYCMQTLQTPITFGQGTRLEIKR
As for B1, the binding result with biotinylated CRH [1] was “binds”.

B2: PR006151 (antibody, human IgG1, kappa, V domains shown)
VH: B1 VH with A55S
VL: B1 VL with S36H
Take B2: in the assay with biotinylated CRH [1], the binding result was “binds”.

B3: PR006152 (antibody, human IgG1, kappa, V domains shown)
VH: B1 VH with A55S
VL: B1 VL with S36N, S37P
B3: the binding result with biotinylated CRH [1] is “binds”.

B4: PR006153 (antibody, human IgG1, kappa, V domains shown)
VH: B1 VH with A55S
VL: B1 VL
As for B4, the binding result in the assay with biotinylated CRH [1] is recorded as “binds”.

B5: PR006150 (antibody, human IgG1, kappa, V domains shown)
VH: B1 VH with A55S
VL: B1 VL with S36D
For the molecule B5, in the assay with biotinylated CRH [1], the binding result was “binds”.

B6: PR302335 (antibody, human IgG1, kappa, V domains shown)
VH: DVQLVESGGGLVQPGGSRKLSCAASGFTFSSFGMHWVRQAPEKGLEWVAYISSGSTIFYYADTVKGRFTISRDNPKNTLFLQMTSLRSEDTAMYYCARDITTATFAFWGQGTLVTVSA
VL: DVVLTQTPLSLPVSLGDQVSISCRSSQNLLHNNGNTYLHWYLQKPGQSPRLLIYKVSNRFSGVPDRFSGSGSGTDFTLKITRVEAEDLGVYFCSQSTHIPWTFGGGTKLEIKR
Consider B6, for which the binding result with biotinylated CRH [2] is given as “binds”.

B7: PR302309-18 (antibody, human IgG1, kappa, V domains shown)
VH: QVQLVQSGAEVKKPGASVKVSCKASGYTFTNYGMNWVRQAPGQRLEWMGWINTYTGEPIYTDDFKGRVTITRDTSASTAYMELSSLRSEDTAVYYCARSTMITTGGVFAYWGQGTLVTVSS
VL: DVVMTQSPLSLPVTLGQPASISCRSSQTIVHSDGNTYLEWYQQRPGQSPRLLIYKVSNRFSGVPDRFSGSGSGTDFTLKISRVEAEDLGVYYCFQGSHVPWTFGGGTKVEIKR
The EC50 (read off the curve) is the concentration needed to bring the measured effect to its halfway point. A higher EC50 (read off the curve) goes with a less potent agent. In general, EC50 refers to the concentration needed to bring the measured effect to its halfway point. Take B7: the “hCRHR1-Luc 0.5 nM CRH IC50” value in assay [3] is 1730 pM. For the same molecule, the “EC50 (read off the curve)” value in the assay with biotinylated CRH [4] is ~30 pM; with biotinylated CRH [5], ~30 pM; in assay [6], ~100 pM. In addition, in [7], the EC50 was found to be 28 pM. The binding result in assay [8], in assay [9], in [10], in assay [11] and in assay [12] was “no binding (tested: 100 nM)” each time.

B8: PR302341-28 (antibody, human IgG1, kappa, V domains shown)
VH: QVQLVQSGAEVKKPGASVKVSCKASGYTFTDYFMKWVRQAPGQGLEWMGVINPNQGDIFYNQKFKGRVTMTVDKSISTAYMELSRLRSDDTAVYYCARGTDRALFAYWGQGTLVTVSS
VL: B7 VL with S26G, T28S, V99I
In the case of B8, the binding result is “no binding (tested: 100 nM)” in assay [8] and “binds” in assay [13].

B9: PR302341-48 (antibody, human IgG1, kappa, V domains shown)
VH: B8 VH with I76T, R85S, D89E
VL: B7 VL with S7T, L11S, S26G, T28S, G34A, S48P, S72A, V99I
For B9, the values for the binding result in assay [8] and in assay [13] were “no binding (tested: 100 nM)” and “binds”, respectively.

B10: PR302324 (antibody, human IgG1, kappa, V domains shown)
VH: EVQLQQSGPELVKPGASVKMSCKASGYTFTDYFMKWVKQSHGGSLEWIGVISPNNGDTFYNQKFKGKATLTVDKSSSTAFMQLNSLTSEDSAVYSCARGTDRALFAYWGQGTLVTVSA
VL: DVLMTQTPLSLPVSLGDQASISCRSSQSIVHSDGNTYLEWYLQRPGQSPKLLIYKVSNRFSGVPDRFSGSGSGTDFTLKISRVGAEDLGVYYCFQGSHIPWTFGGGTKLEVKR
Turning to B10, the binding result with biotinylated CRH [2] is on record as “binds”.

B11: PR302312 (antibody, human IgG1, kappa, V domains shown)
VH: B10 VH with V37M, G43K, S52N, K63N, F80Y, S95Y, A97T, D101A
VL: B10 VL with I99V
In the case of B11, in the assay with biotinylated CRH [2], the binding result is on record as “binds”.

B12: PR302333 (antibody, human IgG1, kappa, V domains shown)
VH: QIQLVQSGPELKKPGETVKISCKASGYTFTNFGMNWVKQAPGKVLKWMGWINTYTGEPIYADDFKGRFAFSLETSASAAYLQINNLKNEDTATYFCSRSTMITTGGVFAYWGQGTLVTVSA
VL: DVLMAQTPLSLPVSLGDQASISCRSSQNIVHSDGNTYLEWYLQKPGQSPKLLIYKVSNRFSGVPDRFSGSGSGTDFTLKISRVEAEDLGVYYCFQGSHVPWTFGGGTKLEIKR
For the molecule B12, in the assay with biotinylated CRH [2], the binding result is on record as “binds”.

B13: PR302332 (antibody, human IgG1, kappa, V domains shown)
VH: B12 VH with N35H, D62A, A78T
VL: B10 VL with T5A, R44K, G84E, I99V, V111I
For B13, the binding result with biotinylated CRH [2] is on record as “binds”.

B14: PR302328 (antibody, human IgG1, kappa, V domains shown)
VH: EVKLVESGGGLVKPGGSLKLSCAASGFTFSSYAMSWVRQTPEKRLEWVASIRSGGTTYYPDSVKGRFTISRDNARNILYLQMSSLRSEDTAIYYCTRGIDWGQGTLVTVSA
VL: NIVMTQTPKFLLVSAGDRVTITCKASQSVNNDVAWYQQKPGQSPKLLIYYASNRYTGVPDRFTGSGYGTDFTFTISTVQAEDLAVYFCQQDYSSWTFGGGTKLEIKR
As to B14, the binding result with biotinylated CRH [2] was “binds”.

B15: PR302331 (antibody, human IgG1, kappa, V domains shown)
VH: B14 VH with T40S
VL: B14 VL with T22A
As to B15, in the assay with biotinylated CRH [2], the binding result is “binds”.

B16: PR302339 (antibody, human IgG1, kappa, V domains shown)
VH: B14 VH with M34L
VL: B14 VL
Consider B16, for which the binding result with biotinylated CRH [2] is reported as “binds”.
